Assay results published in paper doi:10.1101/2021.12.16.472899 (bioRxiv, 2021).
Blank lines part the entries; values can stand above or below the binder they belong to.

B1: PnsB5 (natural protein, UniProt Q9FG89 49-212, looked up)
chain: AAGLSQIEPDINEDPIGQFETNSIEMEDFKYGYYDGAHTYYEGEVQKGTFWGAIADDIAAVDQTNGFQGLISCMFLPAIALGMYFDAPGEYLFIGAALFTVVFCIIEMDKPDQPHNFEPQIYKLERGARDKLINDYNTMSIWDFNDKYGDVWDFTIEKDDIATR
B3: PnsB4 (natural protein, UniProt Q8RXS1 25-175, looked up)
chain: QNSGPNHGYWLSKNVNEKRERNLMRGSLCVRKALPHDLPLMAVMVQQIEGMRDIITEKHVWHLSDKAIKNVYMFYIMFTCWGCLYFGSAKDPFYDSEEYRGDGGDGTGYWVYETQEDIEEKARAELWREELIEEIEQKVGGLRELEEAVTK

How the values were obtained:
Assay in all cases: cryo-EM structure
PnsB1 = molecular target: T1, PnsB1 (Arabidopsis thaliana (endogenous in the …, UniProt Q9S9N6 45-461))
T1 sequence (looked up): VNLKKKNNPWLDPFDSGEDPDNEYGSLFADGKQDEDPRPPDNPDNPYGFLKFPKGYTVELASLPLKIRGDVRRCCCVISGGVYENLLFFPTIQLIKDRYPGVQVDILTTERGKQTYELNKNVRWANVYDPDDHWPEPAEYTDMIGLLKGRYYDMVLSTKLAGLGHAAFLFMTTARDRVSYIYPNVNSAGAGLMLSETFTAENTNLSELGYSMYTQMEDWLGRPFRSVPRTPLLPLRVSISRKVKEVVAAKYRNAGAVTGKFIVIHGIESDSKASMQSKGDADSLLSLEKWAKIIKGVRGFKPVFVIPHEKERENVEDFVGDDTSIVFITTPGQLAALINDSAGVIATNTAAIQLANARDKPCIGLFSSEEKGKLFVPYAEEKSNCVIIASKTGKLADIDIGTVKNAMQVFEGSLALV

Lhca6 = molecular target: T2, Lhca6 (Arabidopsis thaliana (endogenous in the …, UniProt Q8LCQ4 34-270))
T2 sequence (looked up): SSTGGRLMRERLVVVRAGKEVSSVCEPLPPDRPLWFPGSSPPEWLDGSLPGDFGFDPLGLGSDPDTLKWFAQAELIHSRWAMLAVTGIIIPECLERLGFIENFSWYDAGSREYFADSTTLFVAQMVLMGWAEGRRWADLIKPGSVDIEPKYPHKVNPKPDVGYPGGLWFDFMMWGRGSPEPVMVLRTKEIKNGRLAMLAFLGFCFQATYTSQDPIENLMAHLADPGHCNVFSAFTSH

NdhD = molecular target: T3, NdhD (Arabidopsis thaliana (endogenous in the …, UniProt P26288 1-500))
T3 sequence (looked up): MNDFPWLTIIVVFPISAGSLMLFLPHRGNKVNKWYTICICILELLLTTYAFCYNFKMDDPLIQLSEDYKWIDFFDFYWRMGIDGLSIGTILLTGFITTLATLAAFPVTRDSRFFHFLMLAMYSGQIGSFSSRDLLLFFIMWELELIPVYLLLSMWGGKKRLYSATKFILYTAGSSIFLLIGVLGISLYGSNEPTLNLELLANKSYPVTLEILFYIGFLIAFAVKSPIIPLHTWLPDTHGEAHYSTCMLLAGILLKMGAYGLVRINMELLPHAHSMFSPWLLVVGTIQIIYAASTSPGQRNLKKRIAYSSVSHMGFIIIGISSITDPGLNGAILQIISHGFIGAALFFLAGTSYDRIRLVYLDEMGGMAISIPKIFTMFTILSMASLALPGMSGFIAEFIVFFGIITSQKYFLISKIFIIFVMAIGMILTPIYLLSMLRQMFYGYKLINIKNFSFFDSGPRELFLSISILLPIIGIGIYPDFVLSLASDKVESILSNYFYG

Lhca5 = molecular target: T4, Lhca5 (Arabidopsis thaliana (endogenous in the …, UniProt Q9C639 33-256))
T4 sequence (looked up): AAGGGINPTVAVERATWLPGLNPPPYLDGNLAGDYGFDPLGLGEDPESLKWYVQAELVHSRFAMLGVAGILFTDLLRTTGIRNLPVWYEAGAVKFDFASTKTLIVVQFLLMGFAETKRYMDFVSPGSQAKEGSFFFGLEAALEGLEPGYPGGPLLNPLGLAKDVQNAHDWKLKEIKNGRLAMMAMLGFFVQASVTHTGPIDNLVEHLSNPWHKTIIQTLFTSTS

PnsB5 = molecular target: B1
PnsL1 = molecular target: T5, PnsL1 (Arabidopsis thaliana (endogenous in the …, UniProt O80634 81-238))
T5 sequence (looked up): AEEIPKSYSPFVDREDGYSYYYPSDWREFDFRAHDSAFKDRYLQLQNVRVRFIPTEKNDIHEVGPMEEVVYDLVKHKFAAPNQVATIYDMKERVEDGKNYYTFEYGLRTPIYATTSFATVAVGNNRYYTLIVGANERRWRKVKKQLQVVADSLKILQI

PnsL2 = molecular target: T6, PnsL2 (Arabidopsis thaliana (endogenous in the …, UniProt Q9XI73 69-190))
T6 sequence (looked up): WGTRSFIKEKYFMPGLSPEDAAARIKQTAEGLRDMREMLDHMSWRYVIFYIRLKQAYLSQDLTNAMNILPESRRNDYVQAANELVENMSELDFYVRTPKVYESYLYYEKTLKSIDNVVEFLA

PnsB4 = molecular target: B3
NdhF = NdhF (Arabidopsis thaliana (endogenous in the …, UniProt P56752 1-746))
Chain of NdhF (Arabidopsis thaliana (P56752 whole entry): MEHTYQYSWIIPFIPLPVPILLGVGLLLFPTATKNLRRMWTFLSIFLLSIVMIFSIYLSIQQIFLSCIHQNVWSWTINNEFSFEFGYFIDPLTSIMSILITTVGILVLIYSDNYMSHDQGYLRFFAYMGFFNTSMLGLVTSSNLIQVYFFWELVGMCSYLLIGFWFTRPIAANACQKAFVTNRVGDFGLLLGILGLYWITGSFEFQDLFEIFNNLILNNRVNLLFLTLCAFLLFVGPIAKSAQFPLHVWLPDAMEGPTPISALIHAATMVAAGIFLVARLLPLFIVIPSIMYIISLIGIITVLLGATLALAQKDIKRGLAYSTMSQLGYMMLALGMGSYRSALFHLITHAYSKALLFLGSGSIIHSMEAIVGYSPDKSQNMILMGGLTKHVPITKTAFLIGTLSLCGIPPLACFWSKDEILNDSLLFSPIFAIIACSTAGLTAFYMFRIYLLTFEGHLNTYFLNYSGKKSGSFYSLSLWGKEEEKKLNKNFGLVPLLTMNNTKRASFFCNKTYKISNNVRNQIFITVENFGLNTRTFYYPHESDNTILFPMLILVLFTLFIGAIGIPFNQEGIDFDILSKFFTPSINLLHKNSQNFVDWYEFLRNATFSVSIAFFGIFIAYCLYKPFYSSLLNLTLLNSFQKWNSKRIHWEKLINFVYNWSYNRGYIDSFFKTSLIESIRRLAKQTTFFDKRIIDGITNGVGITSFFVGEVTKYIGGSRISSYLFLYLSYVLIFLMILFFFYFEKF

- binding result (PnsL1): binds
- binding result (PnsL2): binds
B5: NdhE (natural protein, UniProt P26289 1-101, looked up)
chain: MILEHVLVLSAYLFLIGLYGLITSRNMVRALMCLELILNAVNMNFVTFSDFFDNSQLKGEIFCIFVIAIAAAEAAIGLAIVSSIYRNRKSIRINQSTLLNK

- binding result (PnsB4): binds
- binding result (NdhD): binds
- binding result (NdhF): binds
B6: PnsL3 (natural protein)
chain: not shown

More lines, now with the values behind:

Binder: B1
- binding result (PnsB1): binds
- binding result (Lhca6): binds
- binding result (NdhD): binds

B2: Lhca1 (natural protein, UniProt Q01667 36-241, looked up)
chain: AGNVGRIRMAAHWMPGEPRPAYLDGSAPGDFGFDPLGLGEVPANLERYKESELIHCRWAMLAVPGILVPEALGYGNWVKAQEWAALPGGQATYLGNPVPWGTLPTILAIEFLAIAFVEHQRSMEKDPEKKKYPGGAFDPLGYSKDPKKLEELKVKEIKNGRLALLAFVGFCVQQSAYPGTGPLENLATHLADPWHNNIGDIVIPFN
- binding result (Lhca5): binds

Binder: B3
- binding result (PnsB1): binds
- binding result (PnsB5): binds
- binding result (NdhD): binds

B4: NdhC (natural protein, UniProt P56751 1-120, looked up)
chain: MFLLYEYDIFWAFLLISSAIPVLAFLISGVLSPIRKGPEKLSSYESGIEPIGDAWLQFRIRYYMFALVFVVFDVETVFLYPWAMSFDVLGVSAFIEAFIFVLILILGLVYAWRKGALEWS
- binding result (PnsL1): binds
- binding result (PnsL2): binds
